Measurements taken from publication PMC8260793, “A split protease-E. coli ClpXP system quantifies protein–protein interactions in Escherichia coli cells” (Communications Biology, 2021).

B1: Cas3 of E. coli K12 Type I-E CRISPR/Cas complex [E. coli K12] / Cas7 of E. coli K12 Type I-E CRISPR/Cas complex [E. coli K12] (parent complex)
chain 1: MEPFKYICHYWGKSSKSLTKGNDIHLLIYHCLDVAAVADCWWDQSVVLQNTFCRNEMLSKQRVKAWLLFFIALHDIGKFDIRFQYKSAESWLKLNPATPSLNGPSTQMCRKFNHGAAGLYWFNQDSLSEQSLGDFFSFFDAAPHPYESWFPWVEAVTGHHGFILHSQDQDKSRWEMPASLASYAAQDKQAREEWISVLEALFLTPAGLSINDIPPDCSSLLAGFCSLADWLGSWTTTNTFLFNEDAPSDINALRTYFQDRQQDASRVLELSGLVSNKRCYEGVHALLDNGYQPRQLQVLVDALPVAPGLTVIEAPTGSGKTETALAYAWKLIDQQIADSVIFALPTQATANAMLTRMEASASHLFSSPNLILAHGNSRFNHLFQSIKSRAITEQGQEEAWVQCCQWLSQSNKKVFLGQIGVCTIDQVLISVLPVKHRFIRGLGIGRSVLIVDEVHAYDTYMNGLLEAVLKAQADVGGSVILLSATLPMKQKQKLLDTYGLHTDPVENNSAYPLINWRGVNGAQRFDLLAHPEQLPPRFSIQPEPICLADMLPDLTMLERMIAAANAGAQVCLICNLVDVAQVCYQRLKELNNTQVDIDLFHARFTLNDRREKENRVISNFGKNGKRNVGRILVATQVVEQSLDVDFDWLITQHCPADLLFQRLGRLHRHHRKYRPAGFEIPVATILLPDGEGYGRHEHIYSNVRVMWRTQQHIEELNGASLFFPDAYRQWLDSIYDDAEMDEPEWVGNGMDKFESAECEKRFKARKVLQWAEEYSLQDNDETILAVTRDGEMSLPLLPYVQTSSGKQLLDGQVYEDLSHEQQYEALALNRVNVPFTWKRSFSEVVDEDGLLWLEGKQNLDGWVWQGNSIVITYTGDEGMTRVIPANPK
chain 2: MSNFINIHVLISHSPSCLNRDDMNMQKDAIFGGKRRVRISSQSLKRAMRKSGYYAQNIGESSLRTIHLAQLRDVLRQKLGERFDQKIIDKTLALLSGKSVDEAEKISADAVTPWVVGEIAWFCEQVAKAEADNLDDKKLLKVLKEDIAAIRVNLQQGVDIALSGRMATSGMMTELGKVDGAMSIAHAITTHQVDSDIDWFTAVDDLQEQGSAHLGTQEFSSGVFYRYANINLAQLQENLGGASREQALEIATHVVHMLATEVPGAKQRTYAAFNPADMVMVNFSDMPLSMANAFEKAVKAKDGFLQPSIQAFNQYWDRVANGYGLNGAAAQFSLSDVDPITAQVKQMPTLEQLKSWVRNNGEA
B2: Cas3 of E. coli K12 Type I-E CRISPR/Cas complex [E. coli K12] / Cas11 of E. coli K12 Type I-E CRISPR/Cas complex [E. coli K12] (parent complex)
chain 1: B1 chain 1
chain 2: MADEIDAMALYRAWQQLDNGSCAQIRRVSEPDELRDIPAFYRLVQPFGWENPRHQQALLRMVFCLSAGKNVIRHQDKKSEQTTGISLGRALANSGRINERRIFQLIRADRTADMVQLRRLLTHAEPVLDWPLMARMLTWWGKRERQQLLEDFVLTTNKNA
B3: Cas3 of E. coli K12 Type I-E CRISPR/Cas complex [E. coli K12] / Cas1 of E. coli K12 Type I-E CRISPR/Cas complex [E. coli K12] (parent complex)
chain 1: B1 chain 1
chain 2: MTWLPLNPIPLKDRVSMIFLQYGQIDVIDGAFVLIDKTGIRTHIPVGSVACIMLEPGTRVSHAAVRLAAQVGTLLVWVGEAGVRVYASGQPGGARSDKLLYQAKLALDEDLRLKVVRKMFELRFGEPAPARRSVEQLRGIEGSRVRATYALLAKQYGVTWNGRRYDPKDWEKGDTINQCISAATSCLYGVTEAAILAAGYAPAIGFVHTGKPLSFVYDIADIIKFDTVVPKAFEIARRNPGEPDREVRLACRDIFRSSKTLAKLIPLIEDVLAAGEIQPPAPPEDAQPVAIPLPVSLGDAGHRSS
B4: Cas3 of E. coli K12 Type I-E CRISPR/Cas complex [E. coli K12] / Cas2 of E. coli K12 Type I-E CRISPR/Cas complex [E. coli K12] (parent complex)
chain 1: B1 chain 1
chain 2: MSMLVVVTENVPPRLRGRLAIWLLEVRAGVYVGDVSAKIREMIWEQIAGLAEEGNVVMAWATNTETGFEFQTFGLNRRTPVDLDGLRLVSFLPV
B5: Cas3 of E. coli K12 Type I-E CRISPR/Cas complex [E. coli K12] / Cas8 of E. coli K12 Type I-E CRISPR/Cas complex [E. coli K12] (parent complex)
chain 1: B1 chain 1
chain 2: MNLLIDNWIPVRPRNGGKVQIINLQSLYCSRDQWRLSLPRDDMELAALALLVCIGQIIAPAKDDVEFRHRIMNPLTEDEFQQLIAPWIDMFYLNHAEHPFMQTKGVKANDVTPMEKLLAGVSGATNCAFVNQPGQGEALCGGCTAIALFNQANQAPGFGGGFKSGLRGGTPVTTFVRGIDLRSTVLLNVLTLPRLQKQFPNESHTENQPTWIKPIKSNESIPASSIGFVRGLFWQPAHIELCDPIGIGKCSCCGQESNLRYTGFLKEKFTFTVNGLWPHPHSPCLVTVKKGEVEEKFLAFTTSAPSWTQISRVVVDKIIQNENGNRVAAVVNQFRNIAPQSPLELIMGGYRNNQASILERRHDVLMFNQGWQQYGNVINEIVTVGLGYKTALRKALYTFAEGFKNKDFKGAGVSVHETAERHFYRQSELLIPDVLANVNFSQADEVIADLRDKLHQLCEMLFNQSVAPYAHHPKLISTLALARATLYKHLRELKPQGGPSNG
B6: Cas3 of E. coli K12 Type I-E CRISPR/Cas complex [E. coli K12] / Cas6 of E. coli K12 Type I-E CRISPR/Cas complex [E. coli K12] (parent complex)
chain 1: B1 chain 1
chain 2: MYLSKVIIARAWSRDLYQLHQGLWHLFPNRPDAARDFLFHVEKRNTPEGCHVLLQSAQMPVSTAVATVIKTKQVEFQLQVGVPLYFRLRANPIKTILDNQKRLDSKGNIKRCRVPLIKEAEQIAWLQRKLGNAARVEDVHPISERPQYFSGDGKSGKIQTVCFEGVLTINDAPALIDLVQQGIGPAKSMGCGLLSLAPL
B7: Cas3 of E. coli K12 Type I-E CRISPR/Cas complex [E. coli K12] / Cas5 of E. coli K12 Type I-E CRISPR/Cas complex [E. coli K12] (parent complex)
chain 1: B1 chain 1
chain 2: MRSYLILRLAGPMQAWGQPTFEGTRPTGRFPTRSGLLGLLGACLGIQRDDTSSLQALSESVQFAVRCDELILDDRRVSVTGLRDYHTVLGAREDYRGLKSHETIQTWREYLCDASFTVALWLTPHATMVISELEKAVLKPRYTPYLGRRSCPLTHPLFLGTCQASDPQKALLNYEPVGGDIYSEESVTGHHLKFTARDEPMITLPRQFASREWYVIKGGMDVSQ

Variants of: B1
Test: SPEC system (split protease-E. coli ClpXP) in E. coli cells; parent: 100; read off a plot

| Variant | percent of parent [%] |
| --- | --- |
| chain 1 D452N | ~120 |
| chain 1 S483A, chain 1 T485A | ~25 |
| chain 1 K78A | ~73 |
| chain 1 K320N | ~120 |

Variants of: B2
Test: as above

| Variant | percent of parent [%] |
| --- | --- |
| chain 1 H74A | ~110 |
| chain 1 K78A | ~110 |
| chain 1 S483A, chain 1 T485A | ~73 |

Variants of: B3
Test: as above

| Variant | percent of parent [%] |
| --- | --- |
| chain 1 D452N | ~130 |
| chain 1 S483A, chain 1 T485A | ~110 |
| chain 1 K78A | ~50 |
| chain 1 K320N | ~120 |
| chain 1 H74A | ~60 |

Variants of: B4
Test: as above

| Variant | percent of parent [%] |
| --- | --- |
| chain 1 K320N | ~130 |
| chain 1 H74A | ~130 |
| chain 1 K78A | ~110 |
| chain 1 D452N | ~130 |

Variants of: B5
Test: as above

| Variant | percent of parent [%] |
| --- | --- |
| chain 1 S483A, chain 1 T485A | ~97 |
| chain 1 H74A | ~82 |
| chain 1 K320N | ~83 |

Variants of: B6
Test: as above

| Variant | percent of parent [%] |
| --- | --- |
| chain 1 H74A | ~150 |
| chain 1 D452N | ~140 |
| chain 1 K78A | ~95 |
| chain 1 D75A | ~110 |
| chain 1 S483A, chain 1 T485A | ~130 |
| chain 1 K320N | ~120 |

Variants of: B7
Test: as above

| Variant | percent of parent [%] |
| --- | --- |
| chain 1 H74A | ~45 |
| chain 1 D452N | ~110 |
| chain 1 K78A | ~67 |
